{
  "source": "paper PMC9569990",
  "about": "(International Journal of Molecular Sciences, 2022)",
  "experiment_in_all_cases": "SPR; cytokine immobilised on ProteOn GLH sensor chip by amine coupling (9,000-14,000 RU); S100P (wild type or mutant) as analyte, 62 nM-16 µM; 25 °C; 10 mM HEPES, 150 mM NaCl, 1 mM CaCl2, 0.05% TWEEN 20, pH 7.4; heterogeneous ligand model (two ligand populations), one-site model for IL-13; values averaged over analyte concentrations (n = 3-5)",
  "settings_in_all_cases": "both partners purified",
  "key": {"Growth hormone variant": {"molecular_target": "T1, Growth hormone variant (human, UniProt P01242 27-217)", "T1 construct": "Growth hormone variant, human, UniProt P01242; see the manufacturer's catalogue number; also called GH-V; source: bought: R&D Systems (source E. coli)", "T1 sequence (P01242 27-217, change not shown)": "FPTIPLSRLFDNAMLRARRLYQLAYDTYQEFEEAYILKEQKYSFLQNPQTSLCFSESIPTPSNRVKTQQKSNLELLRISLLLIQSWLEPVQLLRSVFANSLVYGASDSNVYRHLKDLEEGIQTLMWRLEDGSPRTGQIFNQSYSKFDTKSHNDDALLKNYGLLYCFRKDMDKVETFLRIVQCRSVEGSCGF"}, "Somatotropin": {"molecular_target": "T2, Somatotropin (human, UniProt P01241 27-217)", "T2 construct": "Somatotropin (growth hormone), human, UniProt P01241; see the manufacturer's catalogue number; also called GH; growth hormone; source: bought: PeproTech (source E. coli)", "T2 sequence (P01241 27-217)": "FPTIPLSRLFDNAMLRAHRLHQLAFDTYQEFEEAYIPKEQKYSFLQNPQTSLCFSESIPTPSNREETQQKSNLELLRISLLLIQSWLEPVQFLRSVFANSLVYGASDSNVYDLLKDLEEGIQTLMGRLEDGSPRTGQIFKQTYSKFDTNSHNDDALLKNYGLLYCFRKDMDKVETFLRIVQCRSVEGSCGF"}, "Prolactin": {"molecular_target": "T3, Prolactin (human, UniProt P01236 29-227)", "T3 construct": "Prolactin, human, UniProt P01236; see the manufacturer's catalogue number; also called PRL; source: bought: PeproTech (source E. coli)", "T3 sequence (looked up)": "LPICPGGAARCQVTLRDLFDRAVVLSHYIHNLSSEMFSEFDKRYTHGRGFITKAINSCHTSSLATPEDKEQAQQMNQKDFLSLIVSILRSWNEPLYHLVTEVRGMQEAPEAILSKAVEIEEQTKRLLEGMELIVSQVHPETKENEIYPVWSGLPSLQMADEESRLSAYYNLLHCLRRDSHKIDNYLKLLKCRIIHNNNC"}, "Leptin": {"molecular_target": "T4, Leptin (human, UniProt P41159 22-167)", "T4 construct": "Leptin, human, UniProt P41159; see the manufacturer's catalogue number; source: bought: PeproTech (source E. coli)", "T4 sequence (P41159 22-167)": "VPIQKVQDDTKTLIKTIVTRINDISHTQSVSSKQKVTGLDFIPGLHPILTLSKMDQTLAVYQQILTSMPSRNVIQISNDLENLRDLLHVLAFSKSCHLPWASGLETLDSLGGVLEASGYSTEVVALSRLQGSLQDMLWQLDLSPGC"}, "Interleukin-3": {"molecular_target": "T5, Interleukin-3 (human, UniProt P08700 20-152)", "T5 construct": "Interleukin-3, human, UniProt P08700; see the manufacturer's catalogue number; also called IL-3; source: bought: SCI-Store (Russia) (source CHO)", "T5 sequence (looked up)": "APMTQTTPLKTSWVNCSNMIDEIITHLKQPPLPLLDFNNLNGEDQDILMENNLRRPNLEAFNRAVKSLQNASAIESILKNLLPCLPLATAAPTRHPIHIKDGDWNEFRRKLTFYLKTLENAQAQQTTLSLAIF"}, "Thrombopoietin": {"molecular_target": "T6, Thrombopoietin (human, UniProt P40225 22-353)", "T6 construct": "Thrombopoietin, human, UniProt P40225; see the manufacturer's catalogue number; also called THPO; source: bought: SCI-Store (Russia) (source CHO)", "T6 sequence (P40225 22-353)": "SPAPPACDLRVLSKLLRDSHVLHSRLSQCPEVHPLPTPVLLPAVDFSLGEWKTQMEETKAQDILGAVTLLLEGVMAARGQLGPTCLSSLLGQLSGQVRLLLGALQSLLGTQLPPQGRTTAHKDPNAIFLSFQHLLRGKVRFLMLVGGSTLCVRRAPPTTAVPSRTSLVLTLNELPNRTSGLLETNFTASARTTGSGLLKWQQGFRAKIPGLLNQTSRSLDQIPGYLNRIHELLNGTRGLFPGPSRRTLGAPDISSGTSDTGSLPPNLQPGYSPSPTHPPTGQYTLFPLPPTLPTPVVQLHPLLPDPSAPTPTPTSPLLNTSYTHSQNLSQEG"}, "Interleukin-9": {"molecular_target": "T7, Interleukin-9 (human, UniProt P15248 19-144)", "T7 construct": "Interleukin-9, human, UniProt P15248; see the manufacturer's catalogue number; also called IL-9; source: bought: PeproTech (source E. coli)", "T7 sequence (P15248 19-144)": "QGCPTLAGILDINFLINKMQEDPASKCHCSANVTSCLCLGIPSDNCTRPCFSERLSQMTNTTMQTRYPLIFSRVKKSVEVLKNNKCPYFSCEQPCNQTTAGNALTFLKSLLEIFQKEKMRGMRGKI"}, "Interleukin-10": {"molecular_target": "T8, Interleukin-10 (human, UniProt P22301 19-178)", "T8 construct": "Interleukin-10, human, UniProt P22301; see the manufacturer's catalogue number; also called IL-10; source: bought: PeproTech (source E. coli)", "T8 sequence (P22301 19-178)": "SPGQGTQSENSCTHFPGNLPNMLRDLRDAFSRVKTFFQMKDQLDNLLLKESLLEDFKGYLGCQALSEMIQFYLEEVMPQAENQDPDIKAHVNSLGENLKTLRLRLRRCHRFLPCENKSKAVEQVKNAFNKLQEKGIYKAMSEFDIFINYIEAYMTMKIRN"}},
  "data": [
    {"binder": "Human S100P mutant Δ42–47 (lacks PGFLQS sequence in the 'hinge') (natural protein, S100P protein, human, recombinant, with residues 42-47 (PGFLQS) deleted; source: E. coli, prepared as previously described [28]) MTELETAMGMIIDVFSRYSGSEGSTQTLTKGELKVLMEKELGKDKDAVDKLLKDLDANGDAQVDFSEFIVFVAAITSACHKYFEKAGLK", "values": [
      {"measurement": "Kd", "setting": "Growth hormone variant", "result": "> 100", "unit": "µM"},
      {"measurement": "Kd", "setting": "Somatotropin", "result": "> 100", "unit": "µM"},
      {"measurement": "Kd", "setting": "Prolactin", "result": "> 100", "unit": "µM"},
      {"measurement": "Kd", "setting": "Leptin", "result": "> 100", "unit": "µM"}
    ]},
    {"binder": "Human S100P protein (recombinant, Ca^2+-loaded) (natural protein, S100P protein, human, recombinant; probably the whole 95-residue protein (surmise); also called wild-type S100P; WT S100P; source: E. coli, prepared as previously described [28]) MTELETAMGMIIDVFSRYSGSEGSTQTLTKGELKVLMEKELPGFLQSGKDKDAVDKLLKDLDANGDAQVDFSEFIVFVAAITSACHKYFEKAGLK", "values": [
      {"measurement": "Kd1 (heterogeneous ligand model, population 1)", "setting": "Interleukin-3", "result": 23.2, "unit": "nM"},
      {"measurement": "Kd2 (heterogeneous ligand model, population 2)", "setting": "Interleukin-3", "result": 579, "unit": "nM"},
      {"measurement": "kd1 (heterogeneous ligand model, population 1)", "setting": "Interleukin-3", "result": 0.000627, "unit": "s⁻¹"},
      {"measurement": "kd2 (heterogeneous ligand model, population 2)", "setting": "Interleukin-3", "result": 0.00529, "unit": "s⁻¹"},
      {"measurement": "Kd1 (heterogeneous ligand model, population 1)", "setting": "Thrombopoietin", "result": 834, "unit": "pM"},
      {"measurement": "Kd2 (heterogeneous ligand model, population 2)", "setting": "Thrombopoietin", "result": 41.2, "unit": "nM"},
      {"measurement": "kd1 (heterogeneous ligand model, population 1)", "setting": "Thrombopoietin", "result": 0.000409, "unit": "s⁻¹"},
      {"measurement": "kd2 (heterogeneous ligand model, population 2)", "setting": "Thrombopoietin", "result": 0.00829, "unit": "s⁻¹"},
      {"measurement": "Kd1 (heterogeneous ligand model, population 1)", "setting": "Interleukin-9", "result": 34.7, "unit": "nM"},
      {"measurement": "Kd2 (heterogeneous ligand model, population 2)", "setting": "Interleukin-9", "result": 136, "unit": "nM"},
      {"measurement": "kd1 (heterogeneous ligand model, population 1)", "setting": "Interleukin-9", "result": 0.000531, "unit": "s⁻¹"},
      {"measurement": "kd2 (heterogeneous ligand model, population 2)", "setting": "Interleukin-9", "result": 0.017, "unit": "s⁻¹"},
      {"measurement": "Kd1 (heterogeneous ligand model, population 1)", "setting": "Interleukin-10", "result": 2.55, "unit": "µM"},
      {"measurement": "Kd2 (heterogeneous ligand model, population 2)", "setting": "Interleukin-10", "result": 2.66, "unit": "µM"},
      {"measurement": "kd1 (heterogeneous ligand model, population 1)", "setting": "Interleukin-10", "result": 0.0106, "unit": "s⁻¹"},
      {"measurement": "kd2 (heterogeneous ligand model, population 2)", "setting": "Interleukin-10", "result": 0.000519, "unit": "s⁻¹"}
    ]},
    {"binder": "Human S100P mutant F89A (natural protein, S100P protein, human, recombinant, with F89A; source: E. coli, prepared as previously described [28]) MTELETAMGMIIDVFSRYSGSEGSTQTLTKGELKVLMEKELPGFLQSGKDKDAVDKLLKDLDANGDAQVDFSEFIVFVAAITSACHKYAEKAGLK", "values": [
      {"measurement": "Kd", "setting": "Growth hormone variant", "result": "> 100", "unit": "µM"},
      {"measurement": "Kd1 (heterogeneous ligand model, population 1)", "setting": "Somatotropin", "result": 29.2, "unit": "µM"},
      {"measurement": "Kd2 (heterogeneous ligand model, population 2; column head printed as Kd1)", "setting": "Somatotropin", "result": 138, "unit": "µM"},
      {"measurement": "Kd1 (heterogeneous ligand model, population 1)", "setting": "Prolactin", "result": 689, "unit": "nM"},
      {"measurement": "Kd2 (heterogeneous ligand model, population 2; column head printed as Kd1)", "setting": "Prolactin", "result": 3.12, "unit": "µM"},
      {"measurement": "Kd1 (heterogeneous ligand model, population 1)", "setting": "Leptin", "result": 4.37, "unit": "µM"},
      {"measurement": "Kd2 (heterogeneous ligand model, population 2; column head printed as Kd1)", "setting": "Leptin", "result": 35.7, "unit": "µM"}
    ]}
  ]
}
